From PMC9704045, “Qualification of a Biolayer Interferometry Assay to Support AZD7442 Resistance Monitoring” (Microbiology Spectrum, 2022)

Molecular target: T1, wild-type HexaPro (D614) SARS-CoV-2 spike trimer (SARS-CoV-2, wild type (D614), stabilised)
T1 construct: also called wild-type trimer
Assay: BLI; Octet Red384; […]; analyte ([…]; HBS-EP+ buffer; 1:1 binding model
Details: one partner purified

B1: tixagevimab (AZD8895), full-length IgG (antibody, V domains shown)
VH: QMQLVQSGPEVKKPGTSVKVSCKASGFTFMSSAVQWVRQARGQRLEWIGWIVIGSGNTNYAQKFQERVTITRDMSTSTAYMELSSLRSEDTAVYYCAAPYCSSISCNDGFDIWGQGTMVTVSS
VL: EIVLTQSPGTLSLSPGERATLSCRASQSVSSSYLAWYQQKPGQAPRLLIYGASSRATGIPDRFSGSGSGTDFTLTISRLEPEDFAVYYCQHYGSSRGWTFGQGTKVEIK
notes: also called component of AZD7442 (Evusheld); copies: 2 + 2
With B1 the Kd was 0.491 nM.
